Measurements: patent US7393670B2, “Tyrosyl-tRNA synthetase variants” (Japan Science and Technology Agency, priority 2001, dated 2008)

Legend:
Format in all cases: biochemical
[1] = Aminoacylation activity by Lloyd's method (release of pyrophosphates)
Protocol: In the second method, Lloyd's method (Nucleic Acids Research, 23:2886-2892, 1995) was carried out without alteration.
In the second method, the activity was assayed by Lloyd's method (Nucleic Acids Research, 23:2886-2892, 1995). Each enzyme obtained was incubated with 0.4 ml of the buffer B containing 1 mM ATP (Seikagaku Corporation), 100 μM purified crude tyrosyl-tRNA, 200 μM tyrosine or 3-iodotyrosine at 37° C. for 6 min. The aminoacylation activity was represented as concentrations of released phosphate per min.

[2] = system: wheat germ cell-free translation system; experiment: LC-MS analysis of K3 fragment of Ras translation products; settings: absorbance of chromatogram
Protocol: It was examined by mass spectrometry that iodotyrosine was actually inserted at the position corresponding to the amber codon of the peptide chain. Ras protein purified using nickel beads was applied on SDS-PAGE. A band corresponding to a mobility of Ras among stained product bands was cut out and treated with peptidase. A resultant fragment was analyzed by LC-MS (liquid chromatography—mass spectrometry). The 32nd codon of Ras protein used as a reporter protein is the codon for tyrosine. […] Among the fragments obtained by digesting the translation products, the fragment including the 32nd amino acid from N-terminus (Ser 17 to Lys 42, referred to as K3 fragment) was focused and analyzed. […] No K3 fragment was detected where the other amino acid was accidentally inserted at the site corresponding to the amber codon. The ratio of iodotyrosine to tyrosine inserted to the amber codon was examined by absorbance of chromatogram. […] On the other hand, no fragment having the mass corresponding to the case encompassing iodotyrosine in place of tyrosine was detected in the analysis of the translation products from mRNA which contained no amber codon. […]
It was examined by mass spectrometric analysis that iodotyrosine was actually inserted at the position corresponding to the amber codon of the peptide chain. […] Elutes were analyzed by Finnigan LCQ ion trap mass spectrometer using ESI probe. […]

[3] = Aminoacylation reaction, simplified Lloyd's method, inorganic phosphate detected with Biomol green; parameters: key: ***: the reaction could be detected strongly at 25 nM; **: strongly at 250 nM; *: weakly at 250 nM; the activity is high in the order of *** > ** > * > —; settings: Table 3; tyrosine 200 μM; 37° C. for 4 min
Protocol: (§1) In the first method, Lloyd's method (Nucleic Acids Research, 23:2886-2892, 1995) where inorganic phosphate produced by pyrophosphatase-drived hydrolysis of pyrophosphate which was one of the reaction products of the aminoacylation reactions was quantified was simplified, and the inorganic phosphate was detected using Biomol green (Funakoshi) to carry out the measurement of the aminoacylation reaction.
(§2) Amino acid concentrations were 200 μM and 1 mM for tyrosine and 3-iodotyrosine, respectively.
The method where the aminoacylation reaction is measured by quantifying inorganic phosphate produced by pyrophosphatase-drived hydrolysis of pyrophosphate which is one of reaction products of the aminoacylation has been described by Lloyd et al. (Nucleic Acids Research, 23:2886-2892, 1995). In one method of the invention, this method was simplified and the aminoacylation reaction was measured by the detection of inorganic phosphate using Biomol green (Funakoshi). […] To stop the reaction, 0.1 ml of Bio mol green was added. Absorbance of its supernatant was measured at 630 nm.

[4] = as above; parameters: key: ***: the reaction could be detected strongly at 25 nM; **: strongly at 250 nM; *: weakly at 250 nM; the activity is high in the order of *** > ** > * > —; settings: Table 3; 3-iodotyrosine 1 mM; 37° C. for 4 min
Protocol: as §1, §2
The method where the aminoacylation reaction is measured by quantifying inorganic phosphate produced by pyrophosphatase-drived hydrolysis of pyrophosphate which is one of reaction products of the aminoacylation has been described by Lloyd et al. (Nucleic Acids Research, 23:2886-2892, 1995). In one method of the invention, this method was simplified and the aminoacylation reaction was measured by the detection of inorganic phosphate using Biomol green (Funakoshi). Each enzyme obtained was incubated with 0.05 ml of the buffer B containing 1 mM ATP (Seikagaku Corporation), 30 μM purified crude tyrosyl-tRNA, and 100 μM tyrosine or 0.5 mM 3-iodotyrosine at 37° C. for one hour. To stop the reaction, 0.1 ml of Bio mol green was added. Absorbance of its supernatant was measured at 630 nm.

B1: VC: E. coli TyrRS double variant: position 37 Valine, position 195 Cysteine (protein, UniProt P0AGJ9 2-424, looked up, variant Y37V Q195C)
Tyrosine--tRNA ligase: ASSNLIKQLQERGLVAQVTDEEALAERLAQGPIALVCGFDPTADSLHLGHLVPLLCLKRFQQAGHKPVALVGGATGLIGDPSFKAAERKLNTEETVQEWVDKIRKQVAPFLDFDCGENSAIAANNYDWFGNMNVLTFLRDIGKHFSVNQMINKEAVKQRLNREDQGISFTEFSYNLLQGYDFACLNKQYGVVLCIGGSDQWGNITSGIDLTRRLHQNQVFGLTVPLITKADGTKFGKTEGGAVWLDPKKTSPYKFYQFWINTADADVYRFLKFFTFMSIEEINALEEEDKNSGKAPRAQYVLAEQVTRLVHGEEGLQAAKRITECLFSGSLSALSEADFEQLAQDGVPMVEMEKGADLMQALVDSELQPSRGQARKTIASNAITINGEKQSDPEYFFKEEDRLFGRFTLLRRGKKNYCLICWK
With B1 the “relative tyrosine analogue to tyrosine ratio” value ([1]; 3-iodotyrosine versus tyrosine, from Table 4) was “more than 10”, the “Initial velocity of release of pyrophosphates, 3-iodotyrosine” value ([1]; at 37° C., 200 μM 3-iodotyrosine) was 9.5 nM PPi/min/nM enzyme and the “Initial velocity of release of pyrophosphates, Tyrosine” value ([1]; at 37° C., 200 μM tyrosine) was 0.9 nM PPi/min/nM enzyme. The “K3 fragments encompassing iodotyrosine by the amber suppression” value [2] was no less than 95%, the “ratio of tyrosine insertion at the amber codon” value [2] was no more than 5% and the “Aminoacylation activity, Tyrosine” value [3] was “*”. For the same molecule, the “Aminoacylation activity, 3-iodotyrosine” value [4] was “**”.
